Biological target: PRMT1 (UniProt Q99873)
Test: co-IP with Flag antibody, western blot
Conditions: reference: Flag-RUNX1 wild type; sites T207

binding against the reference: weaker
Substance: RUNX1 (from UniProt Q01196) Flag-RUNX1 T207A

Reference: article PMC7294946
